Experimental data as given in patent US20240277805A1.

Target: T1, myostatin (UniProt O14793)
T1 sequence (looked up): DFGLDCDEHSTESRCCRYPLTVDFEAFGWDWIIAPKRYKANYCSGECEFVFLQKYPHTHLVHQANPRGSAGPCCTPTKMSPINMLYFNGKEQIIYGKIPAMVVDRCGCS
Assay: cell-based or functional assay

Bioassay % relative potency; lot 0010036965, 5° C. upright, 0 months (% relative potency): 100
Bioassay % relative potency; lot 0010036965, 5° C. upright, 0.5 months (% relative potency): 99
Bioassay % relative potency; lot 0010036965, 5° C. upright, 1 month (% relative potency): 100
Bioassay % relative potency; lot 0010036965, 5° C. upright, 3 months (% relative potency): 104
Bioassay % relative potency; lot 0010036965, 5° C. upright, 6 months (% relative potency): 94
Bioassay % relative potency; lot 0010036965, 25° C. upright, 0 months (% relative potency): 100
Bioassay % relative potency; lot 0010036965, 25° C. upright, 0.25 months (% relative potency): 97
Bioassay % relative potency; lot 0010036965, -20° C. upright, 0 months (% relative potency): 100
Bioassay % relative potency; lot 0010036965, -20° C. upright, 1 month (% relative potency): 100
Bioassay % relative potency; lot 0010036965, -20° C. upright, 3 months (% relative potency): 102
Bioassay % relative potency; lot 0010036965, -20° C. upright, 6 months (% relative potency): 95
Bioassay % relative potency; lot 0010036965, -20° C. upright, 9 months (% relative potency): 103
Bioassay % relative potency; lot 0010036965, -20° C. upright, 12 months (% relative potency): 102
Bioassay % relative potency; lot 0010036965, -20° C. upright, 18 months (% relative potency): 102
Bioassay % relative potency; lot 0010036965, -20° C. upright, 24 months (% relative potency): 99
Bioassay % relative potency; lot 0010036965, -20° C. upright, 30 months (% relative potency): 102
Bioassay % relative potency; lot 0010036965, -70° C. upright, 0 months (% relative potency): 100
Bioassay % relative potency; lot 0010036965, -70° C. upright, 12 months (% relative potency): 100
Bioassay % relative potency; lot 0010036965, -70° C. upright, 24 months (% relative potency): 100
Bioassay % relative potency; lot 0010036965, T = 0 of the 5 × freeze/thaw study (% relative potency): 100
Bioassay % relative potency; lot 0010036965, after 5 × F/T (% relative potency): 100
Bioassay % relative potency; lot EG-13-0150, 2-8° C. upright, 0 months (% relative potency): 99
Bioassay % relative potency; lot EG-13-0150, 2-8° C. upright, 1 month (% relative potency): 93.2
Bioassay % relative potency; lot EG-13-0150, 2-8° C. upright, 3 months (% relative potency): 99.7
Bioassay % relative potency; lot EG-13-0150, 2-8° C. upright, 6 months (% relative potency): 114
Bioassay % relative potency; lot EG-13-0150, 2-8° C. upright, 9 months (% relative potency): 103
Bioassay % relative potency; lot EG-13-0150, 2-8° C. upright, 12 months (% relative potency): 106
Bioassay % relative potency; lot EG-13-0150, 25° C. upright, 0 months (% relative potency): 99
Bioassay % relative potency; lot EG-13-0150, 25° C. upright, 1 month (% relative potency): 86.9
Bioassay % relative potency; lot EG-13-0150, -20° C. upright, 0 months (% relative potency): 99
Bioassay % relative potency; lot EG-13-0150, -20° C. upright, 1 month (% relative potency): 93.2
Bioassay % relative potency; lot EG-13-0150, -20° C. upright, 3 months (% relative potency): 94.4
Bioassay % relative potency; lot EG-13-0150, -20° C. upright, 6 months (% relative potency): 110
Bioassay % relative potency; lot EG-13-0150, -20° C. upright, 9 months (% relative potency): 99.3
Bioassay % relative potency; lot EG-13-0150, -20° C. upright, 12 months (% relative potency): 105
Bioassay % relative potency; lot EG-13-0150, T = 0 of the 5 × freeze/thaw study (% relative potency): 99
Bioassay % relative potency; lot EG-13-0150, after 5 × F/T (% relative potency): 96
Bioassay % relative potency; lot FG-13-0230, 2-8° C. upright, 0 months (% relative potency): 99
Bioassay % relative potency; lot FG-13-0230, 2-8° C. upright, 1 month (% relative potency): 116
Bioassay % relative potency; lot FG-13-0230, 2-8° C. upright, 3 months (% relative potency): 108
Bioassay % relative potency; lot FG-13-0230, 2-8° C. upright, 6 months (% relative potency): 93
Bioassay % relative potency; lot FG-13-0230, 2-8° C. upright, 9 months (% relative potency): 116
Bioassay % relative potency; lot FG-13-0230, 2-8° C. upright, 12 months (% relative potency): 121
Bioassay % relative potency; lot FG-13-0230, 25° C. upright, 0 months (% relative potency): 99
Bioassay % relative potency; lot FG-13-0230, 25° C. upright, 1 month (% relative potency): 116
Bioassay % relative potency; lot FG-13-0230, -20° C. upright, 0 months (% relative potency): 99
Bioassay % relative potency; lot FG-13-0230, -20° C. upright, 1 month (% relative potency): 100
Bioassay % relative potency; lot FG-13-0230, -20° C. upright, 3 months (% relative potency): 115
Bioassay % relative potency; lot FG-13-0230, -20° C. upright, 6 months (% relative potency): 96
Bioassay % relative potency; lot FG-13-0230, -20° C. upright, 9 months (% relative potency): 94
Bioassay % relative potency; lot FG-13-0230, -20° C. upright, 12 months (% relative potency): 106
Bioassay % relative potency; lot FG-13-0230, -70° C. upright, 0 months (% relative potency): 99
Bioassay % relative potency; lot FG-13-0230, -70° C. upright, 1 month (% relative potency): 115
Bioassay % relative potency; lot FG-13-0230, -70° C. upright, 3 months (% relative potency): 107
Bioassay % relative potency; lot FG-14-0056, 2-8° C. upright, 0 months (% relative potency): 99
Bioassay % relative potency; lot FG-14-0056, 2-8° C. upright, 1 month (% relative potency): 102
Bioassay % relative potency; lot FG-14-0056, 25° C. upright, 0 months (% relative potency): 99
Bioassay % relative potency; lot FG-14-0056, 25° C. upright, 1 month (% relative potency): 122
Bioassay % relative potency; lot FG-14-0056, -20° C. by the title (condition line prints 2-8° C.), 0 months (% relative potency): 99
Bioassay % relative potency; lot FG-14-0056, -20° C. by the title (condition line prints 2-8° C.), 1 month (% relative potency): 117
Bioassay % relative potency; lot FG-14-0109, 2-8° C. inverted, 0 months (% relative potency): 98
Bioassay % relative potency; lot FG-14-0109, 2-8° C. inverted, 3 months (% relative potency): 96
Bioassay % relative potency; lot FG-14-0109, 2-8° C. inverted, 6 months (% relative potency): 112
Bioassay % relative potency; lot FG-14-0109, 2-8° C. upright, 0 months (% relative potency): 98
Bioassay % relative potency; lot FG-14-0109, 2-8° C. upright, 3 months (% relative potency): 92
Bioassay % relative potency; lot FG-14-0109, 2-8° C. upright, 6 months (% relative potency): 107
Bioassay % relative potency; lot FG-14-0109, 25° C. inverted, 0 months (% relative potency): 98
Bioassay % relative potency; lot FG-14-0109, 25° C. inverted, 3 months (% relative potency): 94
Bioassay % relative potency; lot FG-14-0109, 25° C. inverted, 6 months (% relative potency): 98
Bioassay % relative potency; lot FG-14-0109, 25° C. upright, 0 months (% relative potency): 98
Bioassay % relative potency; lot FG-14-0109, 25° C. upright, 3 months (% relative potency): 91
Bioassay % relative potency; lot FG-14-0109, 25° C. upright, 6 months (% relative potency): 105
Bioassay % relative potency; lot FG-14-0109, -20° C. upright, 0 months (% relative potency): 98
Bioassay % relative potency; lot FG-14-0109, -20° C. upright, 3 months (% relative potency): 96
Bioassay % relative potency; lot FG-14-0109, -20° C. upright, 6 months (% relative potency): 101
Cell Based Bioassay, Relative Potency; DP lot 0010036965, 5° C., 54 months (% relative potency): 87
Cell Based Bioassay, Relative Potency; DP lot 0010036965, -20° C., 54 months (% relative potency): 99
Cell Based Bioassay, Relative Potency; DP lot 0010036965, -70° C., 54 months (% relative potency): 111
Cell Based Bioassay, Relative Potency; DS lot 0010035106, 5° C., 54 months (% relative potency): 101
Cell Based Bioassay, Relative Potency; DS lot 0010035106, -70° C., 54 months (% relative potency): 99
B1: STM 434 (svActRIIB-Fc (E28W, S44T) polypeptide without signal sequence) (Fc fusion)
chain: ETRWCIYYNANWELERTNQTGLERCEGEQDKRLHCYASWRNSSGTIELVKKGCWLDDFNCYDRQECVATEENPQVYFCCCEGNFCNERFTHLPEAGGPEVTYEPPPTAPTGGGGSVECPPCPAPPVAGPSVFLFPPKPKDTLMISRTPEVTCVVVDVSHEDPEVQFNWYVDGVEVHNAKTKPREEQFNSTFRVVSVLTVVHQDWLNGKEYKCKVSNKGLPAPIEKTISKTKGQPREPQVYTLPPSREEMTKNQVSLTCLVKGFYPSDIAVEWESNGQPENNYKTTPPMLDSDGSFFLYSKLTVDKSRWQQGNVFSCSVMHEALHNHYTQKSLSLSPGK
